Test results as given in paper doi:10.1101/871988.

Biological target: recombinant human scavenger receptor B1 (SRB1) (human) (UniProt Q8WTV0)
Assay: SPR

Sequence of UniProt Q8WTV0 (Q8WTV0 whole entry): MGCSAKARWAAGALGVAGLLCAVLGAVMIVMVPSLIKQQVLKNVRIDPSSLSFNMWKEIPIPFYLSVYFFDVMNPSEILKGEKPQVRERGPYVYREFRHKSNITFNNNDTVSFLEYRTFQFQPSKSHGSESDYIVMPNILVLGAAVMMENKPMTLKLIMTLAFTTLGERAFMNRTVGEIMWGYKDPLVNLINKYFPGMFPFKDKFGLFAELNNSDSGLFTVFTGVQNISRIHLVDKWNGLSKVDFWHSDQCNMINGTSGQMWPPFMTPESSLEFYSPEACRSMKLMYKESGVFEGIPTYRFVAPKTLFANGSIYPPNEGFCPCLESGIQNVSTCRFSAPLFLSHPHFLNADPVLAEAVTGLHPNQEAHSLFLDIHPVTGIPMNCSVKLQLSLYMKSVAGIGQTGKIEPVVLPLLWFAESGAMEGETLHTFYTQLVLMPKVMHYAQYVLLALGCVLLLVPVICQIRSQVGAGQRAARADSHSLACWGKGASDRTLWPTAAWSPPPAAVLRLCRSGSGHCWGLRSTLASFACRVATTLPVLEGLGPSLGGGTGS

Substance | Kd [nM]
human high density lipoprotein (HDL) (from UniProt P02647 19-267) (complex) | 18.7
recombinant dengue virus non-structural protein 1 (DENV NS1) (natural protein) | 47
